From paper PMC3985891 (Biochemistry, 2014)

Target: the molecule itself
Assay: SEC-MALS

B1: MVP-s (codon-optimized synthetic MVP, M. jannaschii voltage-gated protein), N-terminal His tag, from pET15b (natural protein, Methanococcus jannaschii, UniProt Q57603 1-209, looked up)
chain: MNLKDRRLKKIMEVLSLIFTFEIVASFILSTYNPPYQDLLIKLDYISIMFFTFEFIYNFYYVEDKAKFFKDIYNIVDAIVVIAFLLYSLQVFYSKAFLGLRVINLLRILVLLRIIKLRKLEENQALINFLTLLTICFIASCLIWIVESGVNPAINNFFDAFYFTTISITTVGYGDITPKTDAGKLIIIFSVLFFISGLITSLQKALKGD
In the case of B1, the “stoichiometry N” value is reported as 4.
